Experimental data published in patent US20250115663A1 (CELLDEX THERAPEUTICS, published 2025).
Numbering of substitutions follows the chain as printed. Each block holds one binder with its values, some of them ahead of it.

Experiments:
[1] = molecular target: T1, soluble human CD40-MsIgG2a (human, UniProt P25942); test: BLI (Octet QKe), antibody captured on anti-human Fc (AHC) biosensors, analyte soluble human CD40-MsIgG2a 3.13 to 0.098 nM, 25 C, 1:1 fit
T1 construct: soluble, fused to mouse IgG2a; also called recombinant human CD40-msG2a chimeric protein; CD40-MsIgG2a (Celldex, 60 kD by SDS-PAGE)
Description: Purified antibodies from Example 1 were captured on Anti-Human Fc Capture (AHC) biosensors (Fortebio Product No. 18-5060). Each antibody was prepared in dilution buffer (10mMPO4+150 mM NaCl+1 mg/mL BSA+0.5% Tween 20, pH 7.2) to 0.5 μg/mL and loaded on freshly hydrated AHC biosensors for 35-50 sec at 25° C. and 1000 rpm plate shake speed to achieve a target response of 0.2 nm. Low levels of ligand were captured to limit any effects of mass transport of analyte on kinetic parameters. For one assay, eight biosensors were loaded with the same antibody.
Binding was determined by exposing six of the antibody loaded biosensors to analyte: soluble human CD40-MsIgG2a (Celldex, 60 kD by SDS-PAGE). Affinity measurements were determined using 2-fold serial dilutions of analyte ranging from 3.13 to 0.098 nM in dilution buffer at 25° C. and 1000 rpm plate shake speed. Association of the antibody loaded biosensors in analyte wells was carried out for 1200 seconds, the biosensors were then moved to dilution buffer wells for 2.5 hrs (9000 sec) for dissociation measurements.
Fortebio's Data Analysis Software version 8.2.0.7 (Pall ForteBio, Menlo Park, CA) was used in each case to derive kinetic parameters from the concentration series of analyte in dilution buffer binding to captured antibody. The association and dissociation curves were fitted to a 1:1 binding model using the data analysis software according to the manufacturer's guidelines.

[2] = molecular target: T2, recombinant human CD40-Fc (human, UniProt P25942 21-193); test: ELISA on coated recombinant human CD40-Fc, detection anti-human IgG F(ab')2-HRP, OD 450-650
T2 construct: also called soluble recombinant human CD40/Fc chimera from R&D Systems; not shown: The antibody Fc domain of the R&D Systems chimera and any linker to it
Description: Microtiter plates were coated with recombinant human CD40-Fc in PBS, and then blocked with 5% bovine serum albumin in PBS. […] The plates were washed with PBS/Tween and then incubated with a goat-anti-human IgG F(ab′)2-specific polyclonal reagent conjugated to horseradish peroxidase at 37° C. After washing, the plates were developed with HRP substrate, and analyzed at OD 450-650 using a microtiter plate reader.

[3] = molecular target: T3, kappa-sCD40(1-94)-Flag point mutant T35E (human, UniProt P25942 21-114); test: ELISA, mutated kappa-sCD40(1-94)-Flag captured on anti-Flag antibody, detection anti-human IgG Fc-HRP; the concentration axis is taken as that of 3C3
T3 construct: not shown: N-terminal human kappa light chain; C-terminal Flag tag
T3 chain: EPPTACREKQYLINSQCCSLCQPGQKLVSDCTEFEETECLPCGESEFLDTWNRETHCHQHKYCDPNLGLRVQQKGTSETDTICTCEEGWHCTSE
Description: (§1) 1 μg/ml of purified kappa-sCD40-Flag fusion proteins or CHO cell supernatants containing the sCD40 fusion proteins were captured to microtiter plates that were pre-coated with 5 μg/ml mouse anti-Flag antibody (Sigma) in PBS and blocked with 5% bovine serum albumin in PBS. Following incubation with the CD40 antibody, the microplates were washed with PBS/Tween, and incubated with a goat anti-human IgG Fc polyclonal reagent conjugated to horseradish peroxidase. After washing, the plates were developed with HRP substrate, and analyzed at OD 450-650 using a microtiter plate reader. An ELISA with a goat anti-human IgG Fab2-HRP to measure kappa chain binding was carried out in parallel to validate the sCD40 fusion protein expression from different transfections.

[4] = molecular target: T4, kappa-sCD40(1-94)-Flag point mutant P3S (human, UniProt P25942 21-114); test: as above
T4 construct: not shown: N-terminal human kappa light chain; C-terminal Flag tag
T4 chain: T3 chain with P3S, E35T
Description: as §1

[5] = molecular target: T5, kappa-sCD40(1-94)-Flag point mutant T4V (human, UniProt P25942 21-114); test: as above
T5 construct: not shown: N-terminal human kappa light chain; C-terminal Flag tag
T5 chain: T3 chain with T4V, E35T
Description: as §1

[6] = molecular target: T6, kappa-sCD40(1-94)-Flag point mutant P2Q (human, UniProt P25942 21-114); test: as above
T6 construct: not shown: N-terminal human kappa light chain; C-terminal Flag tag
T6 chain: T3 chain with P2Q, E35T
Description: as §1

[7] = molecular target: T7, kappa-sCD40(1-94)-Flag point mutant F34L (human, UniProt P25942 21-114); test: as above
T7 construct: not shown: N-terminal human kappa light chain; C-terminal Flag tag
T7 chain: T3 chain with F34L, E35T
Description: as §1

[8] = molecular target: T8, kappa-sCD40(1-94)-Flag point mutant E36K (human, UniProt P25942 21-114); test: as above
T8 construct: not shown: N-terminal human kappa light chain; C-terminal Flag tag
T8 chain: T3 chain with E35T, E36K
Description: as §1

T2 sequence (P25942 21-193 limits assumed, form in doubt): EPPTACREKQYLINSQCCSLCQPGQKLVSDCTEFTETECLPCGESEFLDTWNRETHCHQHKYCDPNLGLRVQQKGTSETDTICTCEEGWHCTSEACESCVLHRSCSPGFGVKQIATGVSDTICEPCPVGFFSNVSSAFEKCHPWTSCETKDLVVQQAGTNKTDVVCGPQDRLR

Kd [1]: 0.0033 nM | EC50 (read off the curve) [2]: ~0.4 nM
B1: anti-CD40 human monoclonal antibody 3G5 (antibody, human IgG2, V domains shown)
VH: QVQLVESGGGVVQPGKSLRLSCAASGFTFSSNGIHWVRQAPGKGLEWVAVIWSDGSNKFYADSVKGRFTISRDNSKNTLYLQMNSLRAEDTAVYYCARASGSGSYYNFFDYWGQGTLVTVSS
VL: EIVMTQSPATLSVSPGERATLSCRASQSVRSNLAWYQQKPGQAPRLLIYGASTRATGIPARFSGSGSGTEFTLTINSLQSEDFAVYYCQQHNKWITFGQGTRLEIK
notes: Human IgG2

EC50 (read off the curve) [3]: ~0.02 µg/mL | EC50 (read off the curve) [4]: ~0.03 µg/mL | EC50 (read off the curve) [5]: ~0.02 µg/mL | EC50 (read off the curve) [6]: ~0.02 µg/mL | EC50 (read off the curve) [7]: ~0.06 µg/mL | EC50 (read off the curve) [8]: ~0.09 µg/mL | Kd [1]: 0.0107 nM | kon [1]: 813000 M⁻¹ s⁻¹ | EC50 (read off the curve) [2]: ~0.4 nM
B2: anti-CD40 human monoclonal antibody 3C3 (antibody, human IgG2, kappa, V domains shown)
VH: QVQLVESGGGVVQPGRSLRLSCAGSGFIFSRYGMYWVRQAPGKGLEWVAVIWYDGSYKYYADSVKGRFTISRDNSKNTLYLQMNSLRAEDTAVYYCARESPWYYFDYWGQGTLVTVSS
VL: DIQMTQSPSSLSASVGDRVTITCRASQGISNYLAWYQQKPGKVPKLLIYAASTLQSGVPSRFSGSGSGTDFTLTISSLQPEDVATYYCQKYKSAPFTFGPGTKVDIKR
notes: Human IgG2, C-terminal lysine removed; also called anti-CD40 mAb 3C3; CD40 antibody 3C3
